Test system: GST-NR2F6 fusion protein, full-length, wild-type
Sequence (chain, as listed by the source): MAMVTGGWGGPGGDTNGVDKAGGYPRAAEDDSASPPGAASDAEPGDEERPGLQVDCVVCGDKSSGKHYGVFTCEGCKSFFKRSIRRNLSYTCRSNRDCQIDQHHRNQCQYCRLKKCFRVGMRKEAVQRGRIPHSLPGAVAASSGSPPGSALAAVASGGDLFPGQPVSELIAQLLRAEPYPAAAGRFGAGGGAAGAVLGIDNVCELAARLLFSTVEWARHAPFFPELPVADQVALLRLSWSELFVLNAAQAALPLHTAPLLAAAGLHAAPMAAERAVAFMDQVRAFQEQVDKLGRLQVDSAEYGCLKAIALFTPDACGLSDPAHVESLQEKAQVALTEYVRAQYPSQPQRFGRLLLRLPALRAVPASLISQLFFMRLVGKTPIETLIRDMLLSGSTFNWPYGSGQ

B1: recombinant PKCzeta (enzyme, UniProt Q05513 1-592, looked up, species assumed)
Protein kinase C zeta type: MPSRTGPKMEGSGGRVRLKAHYGGDIFITSVDAATTFEELCEEVRDMCRLHQQHPLTLKWVDSEGDPCTVSSQMELEEAFRLARQCRDEGLIIHVFPSTPEQPGLPCPGEDKSIYRRGARRWRKLYRANGHLFQAKRFNRRAYCGQCSERIWGLARQGYRCINCKLLVHKRCHGLVPLTCRKHMDSVMPSQEPPVDDKNEDADLPSEETDGIAYISSSRKHDSIKDDSEDLKPVIDGMDGIKISQGLGLQDFDLIRVIGRGSYAKVLLVRLKKNDQIYAMKVVKKELVHDDEDIDWVQTEKHVFEQASSNPFLVGLHSCFQTTSRLFLVIEYVNGGDLMFHMQRQRKLPEEHARFYAAEICIALNFLHERGIIYRDLKLDNVLLDADGHIKLTDYGMCKEGLGPGDTTSTFCGTPNYIAPEILRGEEYGFSVDWWALGVLMFEMMAGRSPFDIITDNPDMNTEDYLFQVILEKPIRIPRFLSVKASHVLKGFLNKDPKERLGCRPQTGFSDIKSHAFFRSIDWDLLEKKQALPPFQPQITDDYGLDNFDTQFTSEPVQLTPDDEDAIKRIDQSEFEGFEYINPLLLSTEESV
For B1, the “phosphorylation (32P incorporation), in vitro protein kinase assay” value was “(but not PKCzeta or PKA)”.

Reference: patent US20110236427
